Experimental data taken from publication doi:10.1101/2022.05.31.494262.

Target: SARS-CoV-2 Nucleocapsid (N) protein, wildtype, SUMO1 modified (SARS-CoV-2 | not stated)
Assay: FRET or BRET

In the case of “SARS-CoV-2 Nucleocapsid (N) protein, wildtype, SUMO1 modified”, the Kd is reported as 460 nM.
